Measured values from PMC5044835, “Crystal Structure of the Human Astrovirus Capsid Protein” (Journal of Virology, 2016).

B1: astrovirus VP70 expressed in insect cells (natural protein)
chain: MASKSDKQVTVEVNNNGRSRSKSRARSQSRGRGRSVKITVNSHNKGRRQNGRNKYQSNQRVRKIVNKQLRKQGVTGPKPAICQTATATLGTIGSNTTGATEIEACILLNPVLVKDATGSTQFGPVQALGAQYSMWKLKYLNVRLTSMVGASAVNGTVVRISLNPTSTPSSTSWSGLGARKHLDVTVGKNAVFKLKPSDLGGPRDGWWLTNTNDNASDTLGPSIEIHTLGQTMSSYQNTQFTGGLFLVELSSAWCFTGYAANPNLVNLVKSTDKSVNVTFEGSAGTPLIMNVPEHSHFARTAVEHSSLSTSLSRAGGESSSDTVWQVLNTAVSAAELVTPPPFNWLVKGGWWFVKLIAGRARTGARRFYVYLSYQDALSNKPALCTGGVPASARQSNPVRTTLQFTQMNQPSLGHGATPMTFGRSIPEPGEQFRVLLTVGPPMAPNTANSQNWVNKTIVPPENQYTVKIGIDLEHYTTMQGFTPVESVSWYTADFQPSDEPSPIPGLYARVNNTKKADVYGVQQFKSSHTNNRHQITSVFLVRVTTSFQVINYTSYFIRGAESGSNVSNLKIRDQTYHTPLQFTQGKWYLLTSTVMHDGPTSSGWVWMNQELTNNIAYRVDPGMMYLITPPPAASQLYFELHTVLPQARSEEPETYVD
notes: construct, tags and purification are not described; source: insect cells
B2: astrovirus VP70 expressed in E. coli (natural protein)
chain: MASKSDKQVTVEVNNNGRSRSKSRARSQSRGRGRSVKITVNSHNKGRRQNGRNKYQSNQRVRKIVNKQLRKQGVTGPKPAICQTATATLGTIGSNTTGATEIEACILLNPVLVKDATGSTQFGPVQALGAQYSMWKLKYLNVRLTSMVGASAVNGTVVRISLNPTSTPSSTSWSGLGARKHLDVTVGKNAVFKLKPSDLGGPRDGWWLTNTNDNASDTLGPSIEIHTLGQTMSSYQNTQFTGGLFLVELSSAWCFTGYAANPNLVNLVKSTDKSVNVTFEGSAGTPLIMNVPEHSHFARTAVEHSSLSTSLSRAGGESSSDTVWQVLNTAVSAAELVTPPPFNWLVKGGWWFVKLIAGRARTGARRFYVYLSYQDALSNKPALCTGGVPASARQSNPVRTTLQFTQMNQPSLGHGATPMTFGRSIPEPGEQFRVLLTVGPPMAPNTANSQNWVNKTIVPPENQYTVKIGIDLEHYTTMQGFTPVESVSWYTADFQPSDEPSPIPGLYARVNNTKKADVYGVQQFKSSHTNNRHQITSVFLVRVTTSFQVINYTSYFIRGAESGSNVSNLKIRDQTYHTPLQFTQGKWYLLTSTVMHDGPTSSGWVWMNQELTNNIAYRVDPGMMYLITPPPAASQLYFELHTVLPQARSEEPETYVD
notes: construct, tags and purification are not described; source: E. coli

Molecular target: the molecule itself
Experiment: not stated; data not shown; oligomeric state of recombinant VP70 expressed in insect cells or E. coli

Protein | stoichiometry N
B1 | 2
B2 | 2
